The source of these data is patent publication US20220146535A1.

The target in assay [1] is T1, N-terminal biotin labeled peptide of SEQ ID NO. 26 without phosphorylated threonine at residue 7 (human).
T1 sequence (peptide, N-terminal biotin; threonine at residue 7 not phosphorylated): RTPSLPTPPTR
The assay can be described thus: BLI (Octet Red96), biotinylated peptide on streptavidin biosensor, IgG at 5 ug/mL, 300 s association and 300 s dissociation.

Assay [2] has as its target N-terminal biotin labeled peptide of SEQ ID NO. 26 with phosphorylated threonine at residue 7 (human). The assay is described as above.
Assay [3] deals with recombinant hTau-pT217 protein having the amino acid sequence of SEQ ID NO: 1 (human) (UniProt P10636). The assay is described as follows: BLI (Octet Red96), antibody captured on Protein A biosensor, hTau-pT217 in solution, 1:1 fit, 25 C; column head prints (M^-1s^-1 units), paragraph 52 says s^-1. For orientation: Biolayer interferometry detects binding as a change in optical thickness at a sensor tip.
UniProt P10636, sequence (P10636 other isoform, or with tags, fused parts or gaps limits assumed): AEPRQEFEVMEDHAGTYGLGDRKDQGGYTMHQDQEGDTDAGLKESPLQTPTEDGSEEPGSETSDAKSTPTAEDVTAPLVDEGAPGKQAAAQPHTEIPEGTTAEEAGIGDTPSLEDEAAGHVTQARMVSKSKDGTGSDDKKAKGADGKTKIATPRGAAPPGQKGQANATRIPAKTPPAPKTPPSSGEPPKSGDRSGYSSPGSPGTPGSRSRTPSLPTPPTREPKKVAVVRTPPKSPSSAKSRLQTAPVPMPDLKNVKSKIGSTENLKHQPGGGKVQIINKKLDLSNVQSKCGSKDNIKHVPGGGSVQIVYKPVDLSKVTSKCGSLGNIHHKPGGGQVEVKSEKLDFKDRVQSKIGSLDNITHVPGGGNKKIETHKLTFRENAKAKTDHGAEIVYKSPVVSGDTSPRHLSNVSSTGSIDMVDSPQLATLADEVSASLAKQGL

The target is the same in assay [4]. The assay is described as follows: BLI (Octet Red96), antibody captured on Protein A biosensor, hTau-pT217 in solution, KD=koff/kon; column head prints (nM), paragraph 52 says molar units; not normalized for avidity.
Assay [5] has the same target. The assay can be described thus: BLI (Octet Red96), antibody captured on Protein A biosensor, hTau-pT217 0.4115-300 nM in solution, 1:1 fit, 25 C.

B1: mAb A, exemplified rabbit anti-hTau-pT217 antibody (antibody)
heavy: QSVEESGGRLVTPGTPLTLTCTVSGLSPSWYGVHWVRQAPGKGLEWIGVLRAGSHTYYAGWAKGRFAISKTSTTVALKITSPTTEDTAIYFCGSVGRGIWGPGTLVTVSLGQPKAPSVFPLAPCCGDTPSSTVTLGCLVKGYLPEPVTVTWNSGTLTNGVRTFPSVRQSSGLYSLSSVVSVTSSSQPVTCNVAHPATNTKVDKTVAPSTCSKPTCPPPELLGGPSVFIFPPKPKDTLMISRTPEVTCVVVDVSQDDPEVQFTWYINNEQVRTARPPLREQQFNSTIRVVSTLPIAHQDWLRGKEFKCKVHNKALPAPIEKTISKARGQPLEPKVYTMGPPREELSSRSVSLTCMINGFYPSDISVEWEKNGKAEDNYKTTPAVLDSDGSYFLYSKLSVPTSEWQRGDVFTCSVMHEALHNHYTQKSISRSPGK
light: AQVLTQTASPVSATVGGTVTINCQASLAVYNNNYLAWYQQKPGQPPKRLIYLASSLSSGVSSHFKGSGSGTQFTLTISDVQADDAATYFCQGSYDCTIADCVAFGGGTEVVVKGDPVAPTVLIFPPAADQVATGTVTIVCVANKYFPDVTVTWEVDGTTQTTGIENSKTPQNSADNTYNLSSTLTLTSTQYNSHKEYTCKVTQGTTSVVQSFNRGDC
Take B1: the binding signal at the end of dissociation is -0.0024 nm in assay [1] and 4.42 nm in assay [2]. The koff (as a rule, the rate constant with which the complex falls apart) in assay [3] stood at 0.000236 s⁻¹. Moreover, in assay [4], the Kd was determined as 0.695 nM. Besides, the on-rate (kon) – broadly, a measure of how fast the partners come together – in assay [5] was 339000 M⁻¹ s⁻¹.
